Results as given in patent US20190160180A1 (FUSION PHARMACEUTICALS, published 2019).

Tests used:
[1] = target: T1, human Endosialin expressed by Sjsa-1 cells (human, UniProt Q9HCU0 18-757); experiment: flow cytometry on Sjsa-1 cells
T1 construct: Endogenous Endosialin on human cell lines; also called Endosialin present on the cell plasma membrane; Endosialin on cell surface (Sjsa-1, T/G HA-VSMC, A673, SKNAS, A375 cells)
T1 sequence: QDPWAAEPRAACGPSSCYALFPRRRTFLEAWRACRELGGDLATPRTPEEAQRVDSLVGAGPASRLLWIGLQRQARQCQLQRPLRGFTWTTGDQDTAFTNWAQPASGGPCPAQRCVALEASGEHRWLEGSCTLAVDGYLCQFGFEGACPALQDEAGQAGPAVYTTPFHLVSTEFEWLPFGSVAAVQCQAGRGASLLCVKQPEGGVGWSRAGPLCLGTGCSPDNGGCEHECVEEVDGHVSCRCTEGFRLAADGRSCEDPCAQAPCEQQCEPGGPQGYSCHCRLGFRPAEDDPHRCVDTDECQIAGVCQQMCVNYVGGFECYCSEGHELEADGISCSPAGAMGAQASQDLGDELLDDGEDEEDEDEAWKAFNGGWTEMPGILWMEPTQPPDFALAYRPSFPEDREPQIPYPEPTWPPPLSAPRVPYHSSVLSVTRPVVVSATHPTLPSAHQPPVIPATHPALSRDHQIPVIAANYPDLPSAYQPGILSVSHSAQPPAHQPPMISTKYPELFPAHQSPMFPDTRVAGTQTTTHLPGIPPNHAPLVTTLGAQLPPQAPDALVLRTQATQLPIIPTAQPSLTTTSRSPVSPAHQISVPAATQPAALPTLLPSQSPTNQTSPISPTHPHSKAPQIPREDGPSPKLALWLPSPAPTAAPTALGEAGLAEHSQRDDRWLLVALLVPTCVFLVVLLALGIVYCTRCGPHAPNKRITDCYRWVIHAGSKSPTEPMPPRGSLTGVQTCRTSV
Protocol: (§1) Materials and Methods: (FIG. 2). (A) Ninety-six well plates (NUNC Maxisorp modules) were pre-coated with human recombinant Endosialin (1 μg/ml) overnight at 4° C. After blocking with 1% BSA in PBS+0.1% Tween-20 for 1 hour at 4° C., mMP-E-8.3, cMP-E-8.3, hMP-E-8.3 and a commercial antibody against Endosialin at the indicated concentration were added and incubated for 2 hours at room temperature. After several washes with PBS+0.1% Tween-20, a goat anti-mouse or anti-human IgG-HRP solution was added to each well and incubated for 1 hour at 37° C. After washes, stabilized chromogen was added to each well for at least 10 minutes in the dark, then the reaction was stopped with the addition of 1 N H₂SO4 and the absorbance was read at 450 nm with an ELISA reader. (B) Sjsa-1 human osteosarcoma cell line were stained with 1 μg/ml of mMP-E-8.3 antibody, or cMP-E-8.3 and hMP-E-8.3 at 100 ng/ml (blue line) and 1 ug/ml (green line) or with 1 μg/ml of a commercial antibody against Endosialin on ice for 30 minutes after incubation with a Goat anti-mouse/anti-human Alexa-488 conjugated antibodies for 1 hour on ice, cells were analyzed by flow cytometer (FACS). (C) Sjsa-1 human osteosarcoma cells were grown on glass coverslips for 24 hours. […]

[2] = target: T2, human recombinant Endosialin (human, UniProt Q9HCU0 18-687, limits assumed); experiment: ELISA, plate coated with recombinant Endosialin
T2 construct: Coated on ELISA plates at 1 ug/ml; also called TEM-1; TEM1
T2 sequence: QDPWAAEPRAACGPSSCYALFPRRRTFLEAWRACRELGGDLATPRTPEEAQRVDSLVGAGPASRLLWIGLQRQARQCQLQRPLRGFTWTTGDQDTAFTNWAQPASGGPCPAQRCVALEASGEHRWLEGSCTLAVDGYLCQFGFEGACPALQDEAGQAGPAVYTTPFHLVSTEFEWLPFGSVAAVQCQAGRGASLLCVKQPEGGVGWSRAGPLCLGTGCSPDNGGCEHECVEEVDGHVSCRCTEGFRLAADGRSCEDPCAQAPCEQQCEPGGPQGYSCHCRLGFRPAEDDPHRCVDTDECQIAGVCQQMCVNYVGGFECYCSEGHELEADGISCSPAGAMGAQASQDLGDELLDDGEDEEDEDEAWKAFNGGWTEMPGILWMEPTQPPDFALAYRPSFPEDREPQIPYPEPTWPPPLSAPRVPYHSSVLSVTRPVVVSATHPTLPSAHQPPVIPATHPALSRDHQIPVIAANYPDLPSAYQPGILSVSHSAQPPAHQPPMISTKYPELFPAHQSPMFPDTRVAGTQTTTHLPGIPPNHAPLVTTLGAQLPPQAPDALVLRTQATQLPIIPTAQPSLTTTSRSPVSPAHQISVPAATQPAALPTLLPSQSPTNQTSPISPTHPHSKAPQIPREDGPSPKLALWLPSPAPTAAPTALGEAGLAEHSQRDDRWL
Protocol: as §1

- binding result [1]: binds
- binding result [2]: binds
B1: cMP-E-8.3 (antibody, V domains shown)
VH: QVQLQESGPGLVAPSQSLSITCTVSGFSLTGYGVNWVRQPPEKGLEWLGMIWVDGSTDYNSALKSRLNISKDKSKSQVFLKMNSLQTDDTARYYCARGGYGAMDYWGQGTSVTVSS
VL: DIQMNQSPSSLSASLGDTITITCHASQNINVWLTWYQQKPGNIPKLLIYKASNLHTGVPSRFSGSGSGTGFTLTISSLQPEDIATYYCQQGQSYPWTFGGGTKLEIKR
notes: also called chimeric cMP-E-8.3; chimerized version of mMP-E-8.3
